Data from patent publication US20240252614A1 (Pfizer, published 2024).

What was measured:
[1] = target: T1, hMPV082 (hMPV A, UniProt Q6WB98 19-102); test: BLI, 53C stress
T1 construct: T411C-Q434C, A140C-S149C, G239A
Description: (§1) The OCTET HTX (Sartorius, Gottingen, Germany) instrument was used to evaluate the expression and conformational integrity for each mutant. All measurements were conducted at 30° C. temperature in 96-well black plates (Corning, Corning, NY) with a final volume of 240 μL per well at a constant agitation rate of 1000 RPM.
(§2) Conformation integrity of hMPV A F protein mutants were evaluated by thermal stress experiments. Crude cell culture supernatants were normalized based on the results of the titer quantitation and then incubated for 1 hour at room temperature and two higher temperatures. […] Anti-Human IgG Fc Capture (AHC) biosensors were first equilibrated in PB before being dipped into more PB to establish the initial baseline. […] The mAb-bound biosensors were then dipped into the thermal stressed cell culture supernatants for 5 minutes. The kinetics analysis was done by OCTET data analysis software (version 12.0, Sartorius) based on curve fitting of the entire associate step.

[2] = target: T2, hMPV085 (hMPV A, UniProt Q6WB98 19-102); test: BLI, 53C stress
T2 construct: T411C-Q434C, L141C-A161C, A459P
Description: as §1, §2

[3] = target: T3, hMPV087 (hMPV A, UniProt Q6WB98 19-102); test: BLI, 53C stress
T3 construct: T411C-Q434C, L141C-A161C, T365I
Description: as §1, §2

[4] = target: T4, hMPV090 (hMPV A, UniProt Q6WB98 19-102); test: BLI, 53C stress
T4 construct: T411C-Q434C, L141C-A161C, A459P, G239A, T49I, S149T, T365I
Description: as §1, §2

[5] = target: T5, hMPV083 (hMPV A, UniProt Q6WB98 19-102); test: BLI, 53C stress
T5 construct: T411C-Q434C, A140C-S149C, A459P, G239A, T49I, T365I
Description: as §1, §2

[6] = target: T6, hMPV045 (hMPV A, UniProt Q6WB98 19-102); test: BLI, 53C stress
T6 construct: I137C-A159C
Description: as §1, §2

[7] = target: T7, hMPV075 (hMPV A, UniProt Q6WB98 19-102); test: BLI, 53C stress
T7 construct: L473F
Description: as §1, §2

[8] = target: T8, hMPV044 (hMPV A, UniProt Q6WB98 19-102); test: BLI, 53C stress
T8 construct: T411C-Q434C
Description: as §1, §2

[9] = target: T9, hMPV055 (hMPV A, UniProt Q6WB98 19-102); test: BLI, 53C stress
T9 construct: N145P
Description: as §1, §2

[10] = target: T10, hMPV043 (hMPV A, UniProt Q6WB98 19-102); test: BLI, 53C stress
T10 construct: G366C-D454C
Description: as §1, §2

[11] = target: T11, hMPV077 (hMPV A, UniProt Q6WB98 19-102); test: BLI, 53C stress
T11 construct: Q476C, S477C
Description: as §1, §2

[12] = target: T12, hMPV049 (hMPV A, UniProt Q6WB98 19-102); test: BLI, 53C stress
T12 construct: E146C-T160C
Description: as §1, §2

[13] = target: T13, hMPV069 (hMPV A, UniProt Q6WB98 19-102); test: BLI, 53C stress
T13 construct: S291I
Description: as §1, §2

[14] = target: T14, hMPV050 (hMPV A, UniProt Q6WB98 19-102); test: BLI, 53C stress
T14 construct: V148C-L158C
Description: as §1, §2

[15] = target: T15, hMPV060 (hMPV A, UniProt Q6WB98 19-102); test: BLI, 53C stress
T15 construct: A459P
Description: as §1, §2

[16] = target: hMPV A F WT Control (hMPV A, UniProt Q6WB98 19-102); test: BLI, 53C stress
Description: as §1, §2

[17] = target: T16, hMPV048 (hMPV A, UniProt Q6WB98 19-102); test: BLI, 53C stress
T16 construct: L141C-A161C
Description: as §1, §2

[18] = target: T17, hMPV046 (hMPV A, UniProt Q6WB98 19-102); test: BLI, 53C stress
T17 construct: A140C-S149C
Description: as §1, §2

[19] = target: T18, hMPV062 (hMPV A, UniProt Q6WB98 19-102); test: BLI, 53C stress
T18 construct: G121A
Description: as §1, §2

[20] = target: T19, hMPV071 (hMPV A, UniProt Q6WB98 19-102); test: BLI, 53C stress
T19 construct: T365I
Description: as §1, §2

[21] = target: T20, hMPV047 (hMPV A, UniProt Q6WB98 19-102); test: BLI, 53C stress
T20 construct: L141C-A159C
Description: as §1, §2

[22] = target: T21, hMPV059 (hMPV A, UniProt Q6WB98 19-102); test: BLI, 53C stress
T21 construct: V449P
Description: as §1, §2

[23] = target: T22, hMPV066 (hMPV A, UniProt Q6WB98 19-102); test: BLI, 53C stress
T22 construct: T49I
Description: as §1, §2

[24] = target: T23, hMPV054 (hMPV A, UniProt Q6WB98 19-102); test: BLI, 53C stress
T23 construct: S132P
Description: as §1, §2

[25] = target: T24, hMPV063 (hMPV A, UniProt Q6WB98 19-102); test: BLI, 53C stress
T24 construct: G239A
Description: as §1, §2

[26] = target: T25, hMPV053 (hMPV A, UniProt Q6WB98 19-102); test: BLI, 53C stress
T25 construct: L110P
Description: as §1, §2

[27] = target: T26, hMPV067 (hMPV A, UniProt Q6WB98 19-102); test: BLI, 53C stress
T26 construct: S149T
Description: as §1, §2

[28] = target: T27, hMPV058 (hMPV A, UniProt Q6WB98 19-102); test: BLI, 53C stress
T27 construct: L187P
Description: as §1, §2

[29] = target: T28, hMPV061 (hMPV A, UniProt Q6WB98 19-102); test: BLI, 53C stress
T28 construct: G106A
Description: as §1, §2

[30] = target: T29, hMPV068 (hMPV A, UniProt Q6WB98 19-102); test: BLI, 53C stress
T29 construct: A159V
Description: as §1, §2

[31] = target: T30, hMPV052 (hMPV A, UniProt Q6WB98 19-102); test: BLI, 53C stress
T30 construct: L66P
Description: as §1, §2

[32] = target: T31, PIV1046 (PIV1); test: BLI, no stress;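 also: binding of thermally stressed PIV1 F mutant supernatant to mAb on AHC biosensors for 5 min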
T31 construct: A466V, S473V
Description: (§3) All measurements were conducted at 30° C. temperature in 96-well black plates (Corning, Corning, NY) with a final volume of 240 μL per well at a constant agitation rate of 1000 RPM.
(§4) Conformation integrity of PIV1 F protein mutants were evaluated by a thermal stress experiment. Crude cell culture supernatants were normalized based on the results of the titer quantitation and then incubated for 1 hour at room temperature and two higher temperatures. For the initial testing of PIV1 mutants, the two temperatures were 50° C. and 53° C. […] Anti-Human IgG Fc Capture (AHC) biosensors were first equilibrated in PB for before being dipped into more PB to establish the initial baseline. […] The mAb-bound biosensors were then dipped into the thermal stresses cell culture supernatants for 5 minutes.

[33] = target: T32, PIV1044 (PIV1); test: BLI, no stress;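 also: binding of thermally stressed PIV1 F mutant supernatant to mAb on AHC biosensors for 5 min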
T32 construct: Q92L
Description: as §3, §4

[34] = target: T33, PIV1042 (PIV1); test: BLI, no stress;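 also: binding of thermally stressed PIV1 F mutant supernatant to mAb on AHC biosensors for 5 min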
T33 construct: Q92A
Description: as §3, §4

[35] = target: T34, PIV1045 (PIV1); test: BLI, no stress;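 also: binding of thermally stressed PIV1 F mutant supernatant to mAb on AHC biosensors for 5 min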
T34 construct: Q92L, G134A
Description: as §3, §4

[36] = target: T35, PIV1043 (PIV1); test: BLI, no stress
T35 construct: Q92A, G134A
Description: as §3, §4

B1: hMPV-2 mAb (antibody, V domains shown)
VH: QVQLQQSGAEVKKPGASVKVSCKASGYTFTSYGISWVRQAPGQGLEWMGWISGYNGNTNYAQTFQGTFTMTTDTSTSTAYMELRRLRSGDTAVYYCARDRYYASGSYNGMDVWGQGTTVTVSS
VL: QSALTQPPSASGAPGQRVTVSCSGSSSNVGSSSVYWYQQLPGTAPKLLIYRNNQRPSGVPDRFSGSKSGTSASLAISGLRSEDEADYYCAAWDDSLSGWVFGGGTKLTVLG
notes: human IgG1
Q: Which results are given for B1?
A: Response Shift [1]: 0.816 nm; Response Shift [2]: 0.672 nm; Response Shift [3]: 0.709 nm; Response Shift [4]: 0.815 nm; Response Shift [5]: 0.755 nm; Response Shift [6]: -0.048 nm; Response Shift [7]: -0.082 nm; Response Shift [8]: 0.618 nm; Response Shift [9]: -0.073 nm; Response Shift [10]: 0.03 nm; Response Shift [11]: -0.007 nm; Response Shift [12]: -0.011 nm; Response Shift [13]: -0.005 nm; Response Shift [14]: -0.032 nm; Response Shift [15]: -0.045 nm; Response Shift [16]: -0.026 nm; Response Shift [17]: -0.059 nm; Response Shift [18]: 0.196 nm; Response Shift [19]: 0.013 nm; Response Shift [20]: -0.046 nm; Response Shift [21]: -0.079 nm; Response Shift [22]: -0.051 nm; Response Shift [23]: 0.265 nm; Response Shift [24]: -0.072 nm; Response Shift [25]: 0.001 nm; Response Shift [26]: 0.017 nm; Response Shift [27]: 0.184 nm; Response Shift [28]: -0.052 nm; Response Shift [29]: -0.073 nm; Response Shift [30]: 0.022 nm; Response Shift [31]: -0.044 nm

B2: PIV1-8 mAb (antibody, V domains shown)
VH: QVQLVQSGAEVKKPGSSVKVSCEASGGTFSNYVISWVRQAPGQGLEWMGGIIPVFATAKYAQKFQGRVTIIADQSTNTAYLELSSLRSDDTAVYFCASVDSGGTWWDAFAIWGQGTMVTVSS
VL: QAVVTQPRSVSGSPGQAVTISCTGTSSDVGGYNYVSWYQHHPGKAPKLIIYDVTKRPSGVPDRFSGSKSGNTASLTISGLQTEYEADYYCCSYAGSYTLVFGGGTKLTVLG
notes: human IgG1; also called hPIV1-8 mAb; hPIV1-8
Q: For B2, which “Response Shift” value [32] is on record?
A: The value was 0.584 nm.

Q: And the “Response Shift” value [33]?
A: Its value is 0.162 nm.

Q: And the “Response Shift” value [34]?
A: Its value is 0.192 nm.

Q: And the “Response Shift” value [35]?
A: The value was 0.635 nm.

Q: And the “Response Shift” value [36]?
A: Its value is 0.725 nm.
